Test: yeast display, Sf9 membrane polyspecificity reagent, FACS + sequencing; frameworks hold sequencing errors
Method in brief: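 Polyreactivity labels are assigned by the sorting gate from which each nanobody was recovered. The gates were low and high (top ~1%), set on anti-HA fluorescence for expression and streptavidin fluorescence for reagent binding. Before sorting, galactose-induced (36–48 hours) yeast display cells were stained for 1 hour at 4 °C with 10% biotinylated, detergent-solubilized Sf9 membrane reagent.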

Row | Sequence | polyreactivity (PSR sort gate)
1 | QVQLVESGGGLVQAGGSLRVSCAASGYIFTPYAMGWYRQAPGKERELVAAISSSTVRTFYADSVKGRFTISRDNAKNTVYLQMNSLKPEDTAVYYCAARGYWGQGTQVTVSS | high polyreactivity
2 | QVQLVESGGGLVQAGGSLRLSCAASGFTFRNYAMGWYIQAPGKERELVATISWSGTSTYYADSVKGRFTISRDNAKNTVYLQMNSLKPEDTAVYYCAARGRHSGYYSFPYYYWGQGTQVTVSS | low polyreactivity
3 | QVQLVESGGGLVHAGGSLRLSCAASGSIYPSYGMGWYRQAPGKERELVARITSGGGTNYADSVKGRFTISRDNAKNTVYLQMNSLKPEDTAVYYCAAQSTTIEDGWYVEYNYWGQGTQVTVSS | high polyreactivity
4 | QVQLVESGGGLVQAGGSLRLSCAASGSTFYRYAMGWYRQAPGKERELVARIRLSGTSTYYADSVKGRFTISRDNAKNTVYLQMNSLKPEDTAVYYCAAELYSRNWRSQYDYWGQGSQVTVSS | high polyreactivity
5 | QVQLVESGGGLVQAGGSLRLSCAASGNTINFYAMGWYRQAPGKEREMVAAISSGGSTNYADSVKGRFTISRDNAKNTVYLQMNSLKPEDSAVYYCAKDVWYLVYYHWKSNRVWQYDYWGQGTQVTVSS | low polyreactivity
6 | QVQLVESGGGLVQAGGSLRLSCAASGIIFAANAMGWYRQAPGKERELVAAISKNGGITYYADSVKGRFTISRDTAKNTVYLQMNSLKPEDTAVYYCAARWRQTRRYYYWGQGTQVTVSS | high polyreactivity
7 | QVQLVQSVGGLVQAGGSLRLSCAASGSIFIWNAMGWYRQAPGKVRELVAAISFTGTSTYYADSVTGRFTISRDNAKNTVYLEMNSLKPEDNAVYYCNNDYRGSQYDYWGQGTQVTVSS | low polyreactivity
8 | QVKLVESGGGLVQAGGSLRLSCAASGFTFYYYTMGGSRQAPGKERELVAAITSRGGNTYYADSVKGRFTISRDYEKNTVYLQMNSLKPEDTAVYYCAACLFSSRCYGYWGQGTQVTVSS | high polyreactivity
9 | QVQLVESGGGLVQAGGSLRLSCAASGSTFVHNAMGWYRQAPGKERELVAAISESGGGTYYADSVKGRFKISRDNAKNTVYLQMNSQKPEDTAVYYCAAPPAGENWRDGGGYFGQGTQVTVSS | low polyreactivity
10 | QVQLVESAGGLVQEGGSLRLICAASGSIFEPYAMGWYRQAPGKERELVAAIRWSGGSTYYADSVKGRFTISRDNAKNTVYLQMNRLIPEDTAVYYCAKYFPAGYYYWGQGTQVTVSS | low polyreactivity
11 | QVQLEESGGGLVQAGGSLRLSCAASGSIFLGYAMGWYRQAPGKERELVAAITTVGSTNYADSVKGRFTISRDNAKNTVYLQMNSVKPEDTAVYYCAAGWVGWGEKYTLDYWGQGTQVTVSS | high polyreactivity
12 | QVQLVESGGGLVQAGGSLRLSCAASGRIFVDNTMGWYRPAPGKERELVAAISRRGTSTYYADSVKGRSTISRDNAKNTVYLQMNSLKPEDTAVYYCAADYYYYDSQQGMDYWGQGTQVTVSS | high polyreactivity
13 | QVQLVESGGGLVQAGGSLRLSCAASGFIFRYYAMGWYRQEPGKERELVAAITSRGSSTYYADSVKGRFTISRDNAKNTVYLQMNSLKPEDTAVYYCAARLRGDYVRYDYWGQGTQVTVSS | high polyreactivity
14 | QVQLVESGGGLVQAGGSLRLSCAASGRIFPDNAMGWYRQAPGKERELVASITSGASTNYADSVKGRFTISRDNAKNTVYLQMNSLKPEDTAVYYCAAVTYAQYRRFDYWGQGTQVTVSS | high polyreactivity
15 | QVQLVESGGGLVQAGGSLRLSCAASGRIFELNARGWYSQAPGKERELVAVISSGGNTHYADSVKGRFTISRDNAKNTVYLQMNSLNPEDTAVYYCAAVASKHWGRDYWGQGTQVTVSS | low polyreactivity
16 | QVQLVESGGGLVQAGGSLRLSCAASGRIITRYTMGWYRQAPGKERELVASITSSGSSTYYADSVKGRFTISRDNAKNTFYLQMNSLKPEDTAVYYCAARSRLRYLYDYWGQGTQVTVSS | high polyreactivity
17 | QVQLVESGGGLVQAGGSLRLSCAASGSILAGNVMGWYRQAPGKERELVAAITGSGGITYYADSVKGRFTISRDNAKNTVYLQMNSLKPEDTAVYYCNAVPDTRSGELDYWGQGTQVTVSS | low polyreactivity
18 | QVQLVESGGGLVQAGGSLRLSCAASGSTFISNTIGWYRQAPGKERELVAAISSGGDTSYADSVKGRFTISRDNAKNTVYLQMNILKPEDTAVYYCNVDTSATSYSSEYDYWGQGTQVTVSS | low polyreactivity
19 | QVQLVESGGGLVQAGGSLRVSCAASGSTFLVYARGWYRQAPGKERELVAAISWSGGSTYYADSVKGRFTISRDNAKKTVYLQMNSLKPEDTAVYYCNAEGIYRQPRGYVYRYDYWGQGTQVTVSS | high polyreactivity
20 | QVQLVESGGGLVQAGGSLRLSCAASGRTFLLYAMGWYRQAPGKERELVASITSDGRTNYADSVKGRFSISRDNAKNTVYLHMNSLKPEDTADYYCATVGKVHHRLVAMDYWGQGTQVTVSS | low polyreactivity
21 | HVQLVESGGGLVQAGGSLRLSCAASGGIFFDNAMGWYRQGPGKERELVAAIRGDSGSTYYADSVKGRFTISRDNAKNTVYLQMNSLKPEDTAVYYCAAALRDYYPGGEYYSQYEYWGQGTQVTVSS | low polyreactivity
22 | QVQLVESGGGLVQAGGSLRLSCAASGITFFGYAMGWYREAPGKERELVAGISRSTGRTYYADSVKGRFTISRDNAKNTVYLQMNILKPEDTAVYYCAARATRSLSRYMDYWGQGTQVTVSS | high polyreactivity

Row | Sequence | polyreactivity (PSR sort gate)
23 | QVQLVESGGGLVQAGGSLRLSCAASGLIFWYSAMGWYRQAPGKERELVAAISSGGSTNYADSVKGRFTISRDNAKNTVYLQMNSLKPEDTAVYYCNVYTYRFHTARQAVDYWGQGTQVTVSS | low polyreactivity
24 | QVQLVESGAGLVQAGGSLRLSCAASGLIFSVYGLGWYRQEPGKERELVAAISSRGGSTYYADSVKGRFTISRVNANYTVYLQMNSLKPEDTAFYYCARRAYREHHRCQYYYWGQGTQLTVSS | high polyreactivity
25 | QVQLVESGGGLVQAGGSLRLSCAASGRTFASYDMGWYRQAPGKEREVVAVIRSGGSTKYADSVKGRFTISRDNAKNTVYLQMNSLKPEDTAVYYCARTYAKTYLSVYLFYYWGQGTQVTVSS | low polyreactivity
26 | QVQLVESGGGLVQAGGSLRISCAASGSTFWYYAMGRYREAPGKERELVAAIRRGGSTYYADSVKGRFTISRDNAKNTVYLQLNSLKPDDTAGYYCAAERPYKTFGYGDWGQGTQVTVSS | high polyreactivity
27 | QVQLVESGGGLVQAGGSLRLSCAASGNILFYNAMGWYRQAPGKERELVAAISRSAGSTYYADSVKGRFTISRDNAKNTVYLQMNSLKPEDTAVYYCAAQYFRRSVYWGQGTQVTVSS | high polyreactivity
28 | QVQLVESGGGLVQAGGSLRLSCAASGSTFAFYAMGWYRQAPGKERELVAAISSSGARTYYADSVKGRFTISRYNAKNTVYLQMNSLKPEDTAVYYCAAAFYRLYITSYYYWGQGTQVTVSS | high polyreactivity
29 | QVQLVESGGGLVQAGGSLRLSCAASGCTFPLYAMGWYRPAPGKERELVAAITSGGGNTYYADSVKGRFTISRDNAKNTVYLQMNSLKPEDTAVYYCAAVGGYKSYYSYEYDYWGQGTQVTVSS | low polyreactivity
30 | QVQLQESGGGLVQAGGRLRLSCAASGTISGPHVMGWYRQAPGKEREFFAAINVGANTYYADNVKGRYTISRDNAKNTVYLQMNSLKPEDTAVYYCAAVYYGDIGHEYWGQGTQVTVSC | low polyreactivity
31 | QVQLVESGGGLVQAGGSLRLSCAASGRTFQYYAMGWYRQAPGKERELVARINRSGGSTYYADSVKGRFTISRDNAKNTVYLQMNSLKPEDTAVYYCAADYLSRSPAYEHYYWGQGTQVTVSS | high polyreactivity
32 | QVQLVESGGGLVQAGGSLRLSCAASGFTFGVNAMGWYRQAPGKERELVAVITSGGNTYYADSVKWRFTISRDNAKNTVYLQMNSLKPEDTAVYYCAAYGRASWERDYWGQGTQVTVSS | low polyreactivity
33 | QVQLVESGGGLVQAGGSLRLSCAPSGSTFGFYAMGWYIQAPGKERELVAAISRGGSTNYADSVKGRFTISRDNAKNTVYLQMNSLKPEDTAVYYCAKAYHATSDYWGQGTQVTVSS | low polyreactivity
34 | QVQLVESAGGLVQAGGSLRLSCAASGRTFVHYAIGWYRPAPAKERELVAAISWSGGSTYYADSVKGRFTISRDNAKNTGYLQMNSLKPEDTAVYYCNAGGFAPGRYGEFDYWGQGTQVTVSS | low polyreactivity
35 | QVQLVESGGGLVQAGGSLRLSCAASGFTLYSYAMGWYRQAPGKERELVARISRSGGRTYYADSVKGRFTISRDNAKNTVYLQMNSLKPEDTAVYYGNARSLYYSYDYWGQGTQVTVSS | high polyreactivity
36 | QVQLVESGGGLVQAGGSLRLSCAASGRTFGYNGMGWYRQAPGKERELVAAINSGGNTNYADSVKGRFTISRDNAKNTVYLQMNSLKPEDTSVYYCAKYGTLYEPVPNEYDYWGQGTQVTVSS | low polyreactivity
37 | QVQLVQSGAGLVQARGSLRLSCAASGSTFRRNVMGWYRQAPGTERELVAAISWSGTSTNYADSVKWRFTISRDNAKNTVYLQMNSLKPEDTAVYYCATQSLYYRWGLDYWGQGTQVTVSS | high polyreactivity
38 | QVQLVESGGGLVQAGGRLRLSCAASGFTFNWYDMGWYRQAPGKERELVATISTGGGTNYADSVKGRFTITRYNAKNTVYLQMNSLKPEDSAVYYCAADGSAGYLWGYDFEGVYWGQGTQVTVSS | high polyreactivity
39 | QVQLVESGGGLVQAGGSLRLSCAASGFIFRGNAMGWYRQAPGKERELVAAISKSGGRTYYADSVKGRFTISRDNAKNTVYLQMNSLKPEDTAVYYCNVLRMGLGRESDSWGQGTQVTVSA | high polyreactivity
40 | QVQLVESGGGLGEAGGSLRLSCAASGSTFGYYAMGWYRQAAGKEREFVAAITGNSDNTYYADSVKGRFTISRDNATNTVYLQMNSLKPEDTAVYYCNDALDPFRFEYWRQGTQVTVSS | low polyreactivity
41 | QVQLVESGAGLVQAGGSLRLSCAASGSIYVYAMGWSRQAPGKERELVAAISWSDGSTYYADSVKGRFTISRDNAKNTVYLQMNSLKPEDTAVYYCNAYGIQVDTYWQDRVEYDYWGQGTQVTVSS | high polyreactivity
42 | QVQLVESGGGLVQAGGSLRLSCADSGRTFWSNSMGWYRQAPGKERELVARIDSTYYADSVKGRFTISRDNAKNTVYLQMNSLKPEDTAFYYCNADTIYYAGDFRYDYWGQGTQVTVSS | low polyreactivity
43 | QVQLVESGGGLVQAGGSLRLSCAASGSILYIYAMGWYSQAPGKERELVASINSGGSTNYADSVKGRFTISRDNAKNTVYLQMNSLKPEDTAVYYCNADTIPDGEDRYDYWGQGTQVTVSS | low polyreactivity

From the nanobody polyreactivity screen of Harvey et al. (2022)
